Source: PMC6804660, “Melatonin enhances salt tolerance by promoting MYB108A-mediated ethylene biosynthesis in grapevines”

What was measured:
[1] = biological target: T1, MYB108A (VviMYB108A) (UniProt C3W4Q3 1-306); experiment: EMSA; EMSA per Thermo Fisher EMSA Kit manual; buffer, salt, pH and temperature not stated; details: protein: recombinant; tags: His; label: biotin
T1 sequence: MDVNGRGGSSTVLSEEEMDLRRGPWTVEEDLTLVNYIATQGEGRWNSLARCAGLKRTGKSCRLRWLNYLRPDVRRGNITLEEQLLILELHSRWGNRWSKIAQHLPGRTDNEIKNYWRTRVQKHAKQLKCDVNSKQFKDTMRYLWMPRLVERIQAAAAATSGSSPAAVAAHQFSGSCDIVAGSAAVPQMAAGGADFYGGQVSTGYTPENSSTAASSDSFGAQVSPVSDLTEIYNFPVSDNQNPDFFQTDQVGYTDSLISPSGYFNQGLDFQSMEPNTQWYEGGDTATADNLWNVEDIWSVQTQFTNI

[2] = biological target: T1, MYB108A (VviMYB108A); experiment: competition; unlabeled mutant competitor vs biotin MBS probe (EMSA); EMSA per Thermo Fisher EMSA Kit manual; buffer, salt, pH and temperature not stated; details: protein: recombinant; tags: His
[3] = biological target: T1, MYB108A (VviMYB108A); experiment: competition; increasing unlabeled competitor vs biotin MBS probe (EMSA); EMSA per Thermo Fisher EMSA Kit manual; buffer, salt, pH and temperature not stated; details: protein: recombinant; tags: His

B1: ACS1 promoter MBS probe (dsDNA)
DNA 1: CATGTCCCTGTGAACCTAACGTAAGGCA
DNA 2: TGCCTTACGTTAGGTTCACAGGGACATG
- binding result [1]: binds

B2: mutant MBS competitor (mMBS) (dsDNA)
DNA 1: CATGTCCCTGTGTACATATCGTAAGGCA
DNA 2: TGCCTTACGATATGTACACAGGGACATG
- binding result [2]: no binding

B3: unlabeled MBS competitor (dsDNA)
DNA 1: CATGTCCCTGTGAACCTAACGTAAGGCA
DNA 2: TGCCTTACGTTAGGTTCACAGGGACATG
- binding result [3]: binds
